Measured values from patent US4137307A, “Process for preparing haptoglobin aqueous solution using strong anion exchanger” (The Green Cross Corporation, priority 1973, dated 1979).

How the values were obtained:
[1] = test system: hemoglobin; test: Residual hemoglobin-binding capacity of haptoglobin after heat treatment (60° C., 10 hours); assay type: physicochemical; conditions: for Residual hemoglobin-binding capacity of haptoglobin after heat treatment: haptoglobin solution of Example 1, 60° C., 10 hours
Protocol: In this example, the relation between the amount used and the stabilizing effects of various stabilizers was examined by measuring the residual hemoglobin-binding capacity of haptoglobin after heat treatment.
The stabilizers used were glycine and alanine as neutral amino acids, and mannitol and glucose as saccharides. Each of the said stabilizers was dissolved in haptoglobin solution in such proportions as shown in Table 7 and then heated at 60° C. for 10 hours. Thereafter, the hemoglobin-binding capacity of the haptoglobin of the solution was measured, and the ratio thereof to the value before heat treatment represented by percentage.
For comparison, the haptoglobin solution without addition of stabilizer was subjected to the same heat treatment as above, and the hemoglobin-binding capacity of haptoglobin of the solution was measured.

[2] = test system: hemoglobin; test: as above; assay type: physicochemical; conditions: dialysate of Example 3
[3] = test system: hemoglobin; test: Hemoglobin-binding capacity of haptoglobin (polyacrylamide gel thin layer electrophoresis, benzidine staining); conditions: maximum addition of hemoglobin with no free hemoglobin observed
[4] = test system: Mice; test: Acute toxicity, LD50, intravenous, mice; assay type: in vivo
Protocol: (§1) The acute toxicity was represented by LD50 measured when the aqueous haptoglobin solution was intravenously injected into mice and rats. The hypotensive activity was represented by the ratio of arterial blood pressure of the dog before and after administration of haptoglobin solution. A ratio less than 10% was evaluated as hypotensive activity negative. The measurement of HB-Ag was made by the radioimmunoassay method (Sadatake Kato et al.: Japanese Patent Publication No. 49,919/73) using Ausria-125 kit, products of Abbott Co.

[5] = test system: Rats; test: Acute toxicity, LD50, intravenous, rats; assay type: in vivo
Protocol: as §1

[6] = test system: arterial blood pressure of the dog; test: Hypotensive activity (arterial blood pressure of the dog before and after administration); assay type: in vivo; conditions: less than 10% evaluated as hypotensive activity negative
Protocol: as §1

[7] = test system: HB-Ag; test: HB-Ag measurement by radioimmunoassay (Ausria-125 kit); set-up: species or system hepatitis B virus
Protocol: as §1

[8] = test system: rabbits; test: Survival of rabbits after haptoglobin and/or hemoglobin administration; assay type: in vivo; conditions: fourth day, 10 tested
Source text: (§2) Thirty mature rabbits of body weight ranging from 2.3 to 2.9 kg were equally divided into 3 groups (10 rabbits per group), and continuously administered with haptoglobin and/or hemoglobin, and then the survival of the rabbits was observed. At the end of the observation, the survived rabbits were anatomized, and various organs thereof were subjected to histopathological examination.
(§3) A 5% solution of haptoglobin in isotonic sodium chloride solution prepared according to the present invention was continuously administered drop-wise intravenously once a day at a dose of 0.8 g/kg (body weight).
(§4) A 10% solution of hemoglobin in isotonic sodium chloride solution isolated from red blood cells of the rabbit was continuously administered drop-wise intraveneously once a day at a dose of 0.4 g/kg (body weight).
(§5) Hemoglobin and then the haptoglobin of the invention were administered in the same manner and dose in the case of both the first and the second groups.
On the fourth day of administration, the survival of the rabbits of each group was examined.

[9] = test system: rabbits; test: Histopathological examination of rabbits after haptoglobin and/or hemoglobin administration; assay type: in vivo
Source text: as §2, §3, §4, §5

[10] = test system: patient; test: Clinical application to a patient (pelvis fracture, urethra rupture and bleeding shock); assay type: in vivo, human
Source text: An example, in which the haptoglobin prepared in Example 2 was clinically applied to a patient, is illustrated below.
The patient was a person, who had been severely stricken on the left waist with lumber that had fallen down during their work and had been sent to hospital as an emergency case. The diagnosis was pelvis fracture, urethra rupture and bleeding shock. Immediately after hospitalization, the patient was subjected to an operation for urinary tract reconstruction. During the operation, the total amount of bleeding was 7,500 ml, the total amount of blood transfused was 4,200 ml, and the total artificial expander transfused was 4,200 ml. […] The clinical progress of the patient after the operation is shown in the accompanying drawing. […] At this stage, 250 ml of a 5% solution of the haptoglobin prepared according to the present invention in isotonic sodium chloride solution was administered to the patient drop-wise intravenously.

[11] = test system: mouse or rat and humans; test: Toxicity / adverse effects on injection of the aqueous solution of haptoglobin; assay type: in vivo, human
[12] = Second group: hemoglobin 0.4 g/kg i.v. once a day
[13] = First group: haptoglobin 0.8 g/kg i.v. once a day
[14] = Third group: hemoglobin 0.4 g/kg then haptoglobin 0.8 g/kg i.v. once a day
[15] = 250 ml of a 5% solution, drop-wise intravenously

## C[C@H](N)C(=O)O [Alanine, alanine]
[1]; stabilizer amount 15%
  Residual hemoglobin-binding capacity of haptoglobin after heat treatment: 50%
[1]; stabilizer amount 20%
  Residual hemoglobin-binding capacity of haptoglobin after heat treatment: 75%
[2]; stabilizer amount 20%
  Residual hemoglobin-binding capacity of haptoglobin after heat treatment: 83%

## Example 2: sterile aqueous haptoglobin solution from Cohn fraction IV, heated with 20% mannitol, purified on GE Cellulose (guanidoethyl cellulose)
[3]
  Hemoglobin-binding capacity: 0.68 mg hemoglobin/mg haptoglobin
[4]
  LD50: ≥ 12000 mg/kg
[5]
  LD50: ≥ 10000 mg/kg
[6]
  Hypotensive activity: 6.0%
[7]
  HB-Ag: Negative

## OC[C@@H](O)[C@@H](O)[C@H](O)[C@@H](O)CO [Sorbitol, sorbitol]
[2]; stabilizer amount 20%
  Residual hemoglobin-binding capacity of haptoglobin after heat treatment: 76%

## OC[C@H]1OC(O)[C@H](O)[C@@H](O)[C@@H]1O (some centres unmarked) [Glucose, glucose]
[1]; stabilizer amount 15%
  Residual hemoglobin-binding capacity of haptoglobin after heat treatment: 45%
[1]; stabilizer amount 20%
  Residual hemoglobin-binding capacity of haptoglobin after heat treatment: 60%
[2]; stabilizer amount 20%
  Residual hemoglobin-binding capacity of haptoglobin after heat treatment: 72%

## Experiment 4: haptoglobin solution by the method of Example 1 with CM-cellulose, non-adsorbed fraction, 0.05 M phosphate buffer (pH 7.0)
[3]
  Hemoglobin-binding capacity: 0.61 mg hemoglobin/mg haptoglobin
[4]
  LD50: ≥ 11700 mg/kg
[5]
  LD50: ≥ 10500 mg/kg
[6]
  Hypotensive activity: 9.8%
[7]
  HB-Ag: Negative

## NCC(=O)O [Glycine, glycine]
[1]; stabilizer amount 2.25%
  Residual hemoglobin-binding capacity of haptoglobin after heat treatment: 20%
[1]; stabilizer amount 5%
  Residual hemoglobin-binding capacity of haptoglobin after heat treatment: 35%
[1]; stabilizer amount 10%
  Residual hemoglobin-binding capacity of haptoglobin after heat treatment: 70%
[1]; stabilizer amount 15%
  Residual hemoglobin-binding capacity of haptoglobin after heat treatment: 95%
[1]; stabilizer amount 20%
  Residual hemoglobin-binding capacity of haptoglobin after heat treatment: 95%
[2]; stabilizer amount 20%
  Residual hemoglobin-binding capacity of haptoglobin after heat treatment: 92%

## OC[C@@H](O)[C@@H](O)[C@H](O)[C@H](O)CO [Mannitol, mannitol]
[1]; stabilizer amount 5%
  Residual hemoglobin-binding capacity of haptoglobin after heat treatment: 15%
[1]; stabilizer amount 7%
  Residual hemoglobin-binding capacity of haptoglobin after heat treatment: 40%
[1]; stabilizer amount 10%
  Residual hemoglobin-binding capacity of haptoglobin after heat treatment: 55%
[1]; stabilizer amount 15%
  Residual hemoglobin-binding capacity of haptoglobin after heat treatment: 80%
[1]; stabilizer amount 20%
  Residual hemoglobin-binding capacity of haptoglobin after heat treatment: 85%
[2]; stabilizer amount 20%
  Residual hemoglobin-binding capacity of haptoglobin after heat treatment: 85%

## Experiment 5: haptoglobin solution by the method of Example 1 with CM-Sephadex, non-adsorbed fraction, 0.05 M phosphate buffer (pH 7.0)
[3]
  Hemoglobin-binding capacity: 0.62 mg hemoglobin/mg haptoglobin
[4]
  LD50: ≥ 11700 mg/kg
[5]
  LD50: ≥ 10500 mg/kg
[6]
  Hypotensive activity: 9.0%
[7]
  HB-Ag: Negative

## Example 3 before treatment: haptoglobin solution of Example 3 before the treatment with the ion exchanger
[6]
  Hypotensive activity: 24.0%

## Example 1 before treatment: haptoglobin solution of Example 1 before the treatment with the ion exchanger
[6]
  Hypotensive activity: 18%

## Example 2 before treatment: haptoglobin solution of Example 2 before the treatment with the ion exchanger
[6]
  Hypotensive activity: 12.0%

## hemoglobin
[8]; [12]
  Number of dead: 7
  Number of survival: 3
[9]; Second group: hemoglobin for 6 days
  Histopathology: marked deposition of iron was observed from proximal tuble to collecting tube of the kidney, thinning of renal epithelial cells was observed, propagation of reticular cells was observed in the spleen, and marked narrowing of sinusoid and deposition of iron were observed in the liver

## OC[C@H]1O[C@@](CO)(O[C@H]2O[C@H](CO)[C@@H](O)[C@H](O)[C@H]2O)[C@@H](O)[C@@H]1O [Sucrose, sucrose]
[2]; stabilizer amount 20%
  Residual hemoglobin-binding capacity of haptoglobin after heat treatment: 68%

## haptoglobin
[1]; absence of stabilizer
  Hemoglobin-binding capacity after heat treatment in the absence of stabilizer: lost its hemoglobin-binding capacity
[1]; aqueous solution without stabilizer, 60° C. for 10 hours
  Activity of haptoglobin after heat treatment: substantially nil
[1]; no stabilizer (None)
  Residual hemoglobin-binding capacity of haptoglobin after heat treatment: ≈ 0%
[1]; with stabilizer, 60° C. and 10 hours
  Haptoglobin activity maintained after heat treatment: 95%
[8]; [13]
  Number of dead: 0
  Number of survival: 10
[8]; [14]
  Number of dead: 1
  Number of survival: 9
[9]; First group: haptoglobin for 14 days
  Histopathology: no change was observed in its kidney, spleen and lung, and only slight narrowing of sinusoid and deposition of iron were observed in the liver
[9]; rabbits, Example 6
  Prevention of renal troubles caused by hemoglobin; adverse effects (conclusion): does not substantially bring about any adverse effects and has the excellent effect of preventing renal troubles caused by hemoglobin
[10]; [15]
  Amount of urine: increase
  General symptoms of the patient: gradually improved
[10]; 250 ml of a 5% solution, drop-wise intravenously, person
  Time to disappearance of blood pigments from the urine: blood pigments disappeared from the urine within several hours after haptoglobin administration
[10]; even 6 months after recovery
  Adverse effect due to the administration: No adverse effect
[11]; 5% solution in isotonic sodium chloride, drop-wise intravenously, human adult
  Adverse effect: no adverse effect is observed at all
[11]; injected in large quantities into mouse, rat, humans
  Toxicity: extremely low
[11]; mouse or rat and humans
  Adverse effects on injection in large quantities: no adverse effects
[2]; no stabilizer (None)
  Residual hemoglobin-binding capacity of haptoglobin after heat treatment: 0%
